# T1: biotinylated CML13 (Arabidopsis thaliana, UniProt Q94AZ4 1-148, biotin, covalently conjugated (biotin-NHS ester), sites not stated)
# T1 sequence: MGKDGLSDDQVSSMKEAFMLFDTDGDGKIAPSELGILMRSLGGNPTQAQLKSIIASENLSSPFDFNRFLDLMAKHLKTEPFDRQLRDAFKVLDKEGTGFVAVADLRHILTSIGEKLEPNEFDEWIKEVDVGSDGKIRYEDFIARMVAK
# T2: biotinylated CML14 (Arabidopsis thaliana, UniProt Q8VZ50 1-148, biotin, covalently conjugated (biotin-NHS ester), sites not stated)
# T2 sequence: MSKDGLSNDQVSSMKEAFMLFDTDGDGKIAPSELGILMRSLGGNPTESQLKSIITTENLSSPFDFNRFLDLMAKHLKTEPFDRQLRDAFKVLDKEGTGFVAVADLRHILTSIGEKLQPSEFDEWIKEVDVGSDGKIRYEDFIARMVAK
# B1: recombinant CML13 (natural protein)
# chain: MGKDGLSDDQVSSMKEAFMLFDTDGDGKIAPSELGILMRSLGGNPTQAQLKSIIASENLSSPFDFNRFLDLMAKHLKTEPFDRQLRDAFKVLDKEGTGFVAVADLRHILTSIGEKLEPNEFDEWIKEVDVGSDGKIRYEDFIARMVAK
# B2: recombinant CML14 (natural protein)
# chain: MSKDGLSNDQVSSMKEAFMLFDTDGDGKIAPSELGILMRSLGGNPTESQLKSIITTENLSSPFDFNRFLDLMAKHLKTEPFDRQLRDAFKVLDKEGTGFVAVADLRHILTSIGEKLQPSEFDEWIKEVDVGSDGKIRYEDFIARMVAK
# B3: IQD14-IQ1+2 synthetic peptide, residues 322-367 (peptide)
# peptide: not shown
# modifications: N-terminal acetylation; C-terminal amidation
# Legend:
# [1] = target: recombinant CaM (petunia CaM81) (petunia, UniProt P62199 1-149); assay: ITC
# biotinylated CML13 = target: T1, biotinylated CML13; assay: far-Western, overlay or dot blot
# [2] = target: biotinylated CaM (petunia CaM81) (petunia, UniProt P62199 1-149, biotin, covalently conjugated (biotin-NHS ester), sites not stated); assay: far-Western, overlay or dot blot
# biotinylated CML14 = target: T2, biotinylated CML14; assay: far-Western, overlay or dot blot
# [3] = target: B3; assay: AUC
# recombinant CML14 = target: B2; assay: ITC
# recombinant CML13 = target: B1; assay: ITC
binder,measurement,setting,value
"Ac-ALKGLVRLQGVVRGYSVKRQTINA-NH2 [IQD14-IQ2 synthetic peptide, residues 344-367]",binding result,[1],binds
"recombinant IQD14 (residues 307-418), all three putative IQ domains (domain or fragment) RREIVYRPEPTLPVQHASATKIQGAFRGYMARKSFRALKGLVRLQGVVRGYSVKRQTINAMKYMQQVVRVQSQIQSRRIKMLENQAQVEKDEAKWAASEAGNDNWDDSVLTK",binding result,biotinylated CML13,binds
same,binding result,[2],binds
same,binding result,biotinylated CML14,binds
B1,stoichiometry N,[3],1
B2,stoichiometry N,[3],1
"Ac-QHASATKIQGAFRGYMARKSFRALK-NH2 [IQD14-IQ1 synthetic peptide, residues 322-346]",Kd,[1],7 nM
same,Kd,recombinant CML14,116 nM
same,Kd,recombinant CML13,222 nM
B3,binding result,[1],binds
same,binding result,recombinant CML14,binds
same,binding result,recombinant CML13,binds
